Blank lines part the entries; values can stand above or below the molecule they belong to.
Columns and labels:
UGT76G1 [1] = target: T1, UGT76G1 (Stevia rebaudiana, UniProt Q6VAB4); experiment: X-ray crystal structure; format: binding
T1 construct: synthetic gene in pET21a (NdeI/XhoI), C-terminal hexa-histidine tag, E. coli BL21 (DE3), monomer
T1 sequence (Q6VAB4 1-458): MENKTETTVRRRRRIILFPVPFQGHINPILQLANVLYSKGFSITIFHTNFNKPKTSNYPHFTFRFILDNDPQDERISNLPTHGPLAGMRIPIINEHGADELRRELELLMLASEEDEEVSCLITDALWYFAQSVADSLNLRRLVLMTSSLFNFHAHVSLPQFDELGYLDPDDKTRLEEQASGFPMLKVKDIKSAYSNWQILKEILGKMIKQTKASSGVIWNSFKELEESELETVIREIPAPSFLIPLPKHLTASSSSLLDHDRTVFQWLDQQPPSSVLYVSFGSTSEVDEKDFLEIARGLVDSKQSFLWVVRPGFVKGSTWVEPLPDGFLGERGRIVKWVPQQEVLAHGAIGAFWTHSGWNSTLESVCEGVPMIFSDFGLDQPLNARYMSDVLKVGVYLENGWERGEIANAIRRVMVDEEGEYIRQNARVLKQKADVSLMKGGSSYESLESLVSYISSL

UGT76G1 [2] = target: T2, UGT76G1 (Stevia rebaudiana, UniProt Q6VAB4, H25A); experiment: X-ray crystal structure; format: binding; details: sodium citrate pH 5.4, PEG 4000; 1 mM UDP
T2 construct: synthetic gene in pET21a (NdeI/XhoI), C-terminal hexa-histidine tag, E. coli BL21 (DE3), monomer
T2 sequence (Q6VAB4 whole entry H25A): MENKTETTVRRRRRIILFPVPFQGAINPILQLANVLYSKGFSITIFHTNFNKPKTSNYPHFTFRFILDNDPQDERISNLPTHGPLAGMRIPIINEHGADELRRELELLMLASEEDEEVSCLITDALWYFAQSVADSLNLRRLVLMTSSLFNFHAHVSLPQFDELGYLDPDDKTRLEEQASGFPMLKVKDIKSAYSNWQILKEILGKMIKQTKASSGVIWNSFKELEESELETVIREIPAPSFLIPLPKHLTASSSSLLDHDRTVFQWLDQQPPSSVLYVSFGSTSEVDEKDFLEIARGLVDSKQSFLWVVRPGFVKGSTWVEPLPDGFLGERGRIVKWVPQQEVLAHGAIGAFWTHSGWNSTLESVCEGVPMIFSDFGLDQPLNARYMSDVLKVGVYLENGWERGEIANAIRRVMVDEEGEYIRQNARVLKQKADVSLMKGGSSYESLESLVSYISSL

purified protein [3] = substrate: C=C1C[C@@]23CC[C@H]4[C@@](C)(CCC[C@@]4(C)C(=O)O[C@@H]4O[C@H](CO)[C@@H](O)[C@H](O)[C@H]4O)[C@@H]2CC[C@]1(O[C@@H]1O[C@H](CO)[C@@H](O)[C@H](O[C@@H]2O[C@H](CO)[C@@H](O)[C@H](O)[C@H]2O)[C@H]1O[C@@H]1O[C@H](CO)[C@@H](O)[C@H](O)[C@H]1O)C3; experiment: purified protein; details: UDPG 100 μM; transfer at R2
purified protein [4] = substrate: C=C1C[C@@]23CC[C@H]4[C@@](C)(CCC[C@@]4(C)C(=O)O[C@@H]4O[C@H](CO)[C@@H](O)[C@H](O)[C@H]4O)[C@@H]2CC[C@]1(O[C@@H]1O[C@H](CO)[C@@H](O)[C@H](O)[C@H]1O[C@@H]1O[C@H](CO)[C@@H](O)[C@H](O)[C@H]1O)C3; experiment: purified protein; details: UDPG 100 μM; transfer at R1 (initial rate, <10% consumption)
[5] = substrate: O=c1ccn([C@@H]2O[C@H](CO[P@@](=O)(O)O[P@@](=O)(O)O[C@H]3O[C@H](CO)[C@@H](O)[C@H](O)[C@H]3O)[C@@H](O)[C@H]2O)c(=O)[nH]1; experiment: UDP-Glo glycosyltransferase assay, Michaelis-Menten fit; format: biochemical, Stevia rebaudiana; details: sugar donor; acceptor STB 50 μM
From the text: (§1) UDP-Glo glycosyltransferase assay, Michaelis-Menten fit on UGT76G1

[6] = substrate: C=C1C[C@@]23CC[C@H]4[C@@](C)(CCC[C@@]4(C)C(=O)O)[C@@H]2CC[C@]1(O[C@@H]1O[C@H](CO)[C@@H](O)[C@H](O)[C@H]1O[C@@H]1O[C@H](CO)[C@@H](O)[C@H](O)[C@H]1O)C3; experiment: as above; format: biochemical, Stevia rebaudiana; details: UDPG 100 μM; transfer at R1
From the text: as §1

[7] = substrate: C=C1C[C@@]23CC[C@H]4[C@@](C)(CCC[C@@]4(C)C(=O)O[C@@H]4O[C@H](CO)[C@@H](O)[C@H](O)[C@H]4O)[C@@H]2CC[C@]1(O[C@@H]1O[C@H](CO)[C@@H](O)[C@H](O)[C@H]1O)C3; experiment: as above; format: biochemical, Stevia rebaudiana; details: UDPG 100 μM; transfer at R1 (initial rate, <10% consumption)
From the text: as §1

[8] = substrate: C=C1C[C@@]23CC[C@H]4[C@@](C)(CCC[C@@]4(C)C(=O)O[C@@H]4O[C@H](CO)[C@@H](O)[C@H](O)[C@H]4O[C@@H]4O[C@H](CO)[C@@H](O)[C@H](O)[C@H]4O)[C@@H]2CC[C@]1(O[C@@H]1O[C@H](CO)[C@@H](O)[C@H](O)[C@H]1O[C@@H]1O[C@H](CO)[C@@H](O)[C@H](O)[C@H]1O)C3; experiment: as above; format: biochemical, Stevia rebaudiana; details: UDPG 100 μM; transfer at R1 (initial rate, <10% consumption)
From the text: as §1

Molecule: O=c1ccn([C@@H]2O[C@H](COP(=O)(O)OP(=O)(O)O)[C@@H](O)[C@H]2O)c(=O)[nH]1 [UDP]
- X-ray crystal structure (UGT76G1 [1]; sodium citrate pH 5.4, PEG 4000, 1 mM UDP): both the wild type and H25A mutant of UGT76G1 with UDP
- X-ray crystal structure (UGT76G1 [2]): both the wild type and H25A mutant of UGT76G1 with UDP

- X-ray crystal structure (UGT76G1 [1]; ternary complex with UDP, bound at active site, second remote molecule called artifact): the wild type with UDP and Rubu
Molecule: C=C1C[C@@]23CC[C@H]4[C@@](C)(CCC[C@@]4(C)C(=O)O[C@@H]4O[C@H](CO)[C@@H](O)[C@H](O)[C@H]4O)[C@@H]2CC[C@]1(O[C@@H]1O[C@H](CO)[C@@H](O)[C@H](O)[C@H]1O)C3 [Rubu]

B1: UGT76G1 (Stevia rebaudiana) (protein)
chain: T1 sequence (Q6VAB4 1-458)
notes: synthetic gene in pET21a (NdeI/XhoI), C-terminal hexa-histidine tag, E. coli BL21 (DE3), monomer
- Km (purified protein [3]): 243.4 ± 28.1 µM
- kcat (purified protein [3]): 0.002 s⁻¹
- kcat/Km (purified protein [3]): 8 M⁻¹ s⁻¹
- Km (purified protein [4]): 25.5 ± 3.4 µM
- kcat (purified protein [4]): 0.697 s⁻¹
- kcat/Km (purified protein [4]): 27300 M⁻¹ s⁻¹
- Km [5]: 5.6 ± 0.4 µM
- kcat [5]: 0.0683 ± 0.00167 s⁻¹
- kcat/Km [5]: 12400 M⁻¹ s⁻¹
- Km [6]: 4.8 ± 0.4 µM
- kcat [6]: 0.08 ± 0.00167 s⁻¹
- kcat/Km [6]: 16500 M⁻¹ s⁻¹
- Km [7]: 54.4 ± 4.0 µM
- kcat [7]: 0.0983 ± 0.00167 s⁻¹
- kcat/Km [7]: 1800 M⁻¹ s⁻¹
- Km [8]: 9.2 ± 0.7 µM
- kcat [8]: 0.355 ± 0.00833 s⁻¹
- kcat/Km [8]: 38600 M⁻¹ s⁻¹
